Test results: article PMC5543128

B1: B4 (ssDNA)
DNA: GCCTGTTGTGAGCCTCCTGTCGAATACGCACATACTGTGTACCTTGAATTTATATTGAGCGTTTATTCTTGTCTCCC
B2: D3 (ssDNA)
DNA: GCCTGTTGTGAGCCTCCTGTCGAAATCGGTCGTATAGGGTCGATTTGGTCGGCATTGAGCGTTTATTCTTGTCTCCC
B3: A5 (ssDNA)
DNA: GCCTGTTGTGAGCCTCCTGTCGAAGTGCAGGTCTATACAGGACAGTCTTCTGATTTGAGCGTTTATTCTTGTCTCCC
B4: D7 (ssDNA)
DNA: GCCTGTTGTGAGCCTCCTGTCGAATGCAGCATGGGGGATGTGCTCTTCCGCGTGTTGAGCGTTTATTCTTGTCTCCC
B5: A4 (ssDNA)
DNA: GCCTGTTGTGAGCCTCCTGTCGAAAATGCTGTTGTTTGAGTATCAATCAGACCGTTGAGCGTTTATTCTTGTCTCCC
B6: 5'-biotin B4 (ssDNA)
DNA: B1 DNA

These binders were tested against FAM-αC-conotoxin PrXA (Conus parius, UniProt P0C8S5 52-83) (assay: fluorescence anisotropy). Conditions: tags: 5,6-carboxyfluorescein (FAM).
FAM-αC-conotoxin PrXA, sequence (P0C8S5 52-83): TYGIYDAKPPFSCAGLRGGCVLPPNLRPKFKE

Binder | Kd
B1 | 120 ± 21.3 nM
B2 | 122 ± 25.3 nM
B3 | 184 ± 69.7 nM
B4 | 238 ± 30.6 nM
B5 | 246 ± 66.6 nM

What follows are binders tested against αC-conotoxin PrXA (Conus parius, UniProt P0C8S5 52-83) (assay: SPR). Conditions: tags: none; label: 5' biotin.
αC-conotoxin PrXA, sequence (P0C8S5 52-83): as above

Binder | Kd
B6 | 329 nM
